From patent US20170158765A1 (Merck Sharp & Dohme, published 2017)

Target: T1, human ILT5 on the surface of peripheral blood cells (PBMC subsets, APCs) (human, UniProt O75022 24-631)
T1 construct: whole, on cells; also called surface ILT5; Immunoglobulin-like transcript 5
Assay: flow cytometry, staining of human PBMCs
Text: Peripheral blood mononuclear cells (PBMCs) from healthy human blood donors were stained with a murine monoclonal antibody (TRX585) comprising a heavy chain variable region comprising the amino acid sequence of SEQ ID NO: 2 or SEQ ID NO: 3, and a light chain variable region comprising the amino acid sequence of SEQ ID NO: 1. Sequencing analysis of the heavy chain variable region was inconclusive as to whether the first amino acid residue was D or E. As the two amino acids are very similar and the first residue is not in a CDR, it is highly likely that VH with D or E at the first position would have very similar if not the same ILT5-binding properties. PBMCs were also stained with antibodies specific for defined hematopoietic cell lineages and analyzed for ILT5 expression by flow cytometry.

T1 sequence (O75022 24-631): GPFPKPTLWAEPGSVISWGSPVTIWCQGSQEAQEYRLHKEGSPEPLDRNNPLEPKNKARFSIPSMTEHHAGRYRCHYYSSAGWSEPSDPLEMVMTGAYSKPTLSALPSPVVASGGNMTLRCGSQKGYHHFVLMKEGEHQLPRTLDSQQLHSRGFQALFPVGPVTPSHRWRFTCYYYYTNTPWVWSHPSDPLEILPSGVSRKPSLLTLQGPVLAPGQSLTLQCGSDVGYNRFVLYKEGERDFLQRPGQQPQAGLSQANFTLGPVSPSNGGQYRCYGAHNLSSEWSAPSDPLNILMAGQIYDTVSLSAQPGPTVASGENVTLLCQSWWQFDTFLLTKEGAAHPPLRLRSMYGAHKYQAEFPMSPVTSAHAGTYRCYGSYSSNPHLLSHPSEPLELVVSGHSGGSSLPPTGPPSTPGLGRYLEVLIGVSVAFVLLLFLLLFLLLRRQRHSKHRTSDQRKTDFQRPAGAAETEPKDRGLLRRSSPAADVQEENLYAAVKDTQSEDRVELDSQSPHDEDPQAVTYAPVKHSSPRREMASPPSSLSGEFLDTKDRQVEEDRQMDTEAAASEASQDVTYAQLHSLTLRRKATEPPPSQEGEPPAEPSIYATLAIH

B1: TRX585 mouse anti-human ILT5 monoclonal antibody (8G6 mAb, IgG1, kappa) (antibody, V domains shown)
VH: DVQLQESGPGLVKPSQSLFLTCSVTGYSISSSYYWNWIRQFPGNKLEWMGYISFDGSNNYNPSLKNRISITRDTSKNQFFLKLNSVTTEDTATYYCAREKENYYGSSFYYFDYWGLGTSLTVSS
VL: DIQMTQSPASLSVSVGETVTITCRASENIYSNLAWYQQKQGKSPQVLVYAATNLADGVPSRFSGSGSGTQFSLKINSLQSEDFGNYFCQHFWRIPWTFGGGTKLEIK
notes: Murine IgG1, kappa purified from hybridoma supernatant; also called TRX585 antibody; TRX585 mAb
Question: Does B1 bind?
Answer: binds
